This assay deals with cytochrome c 552 from Thermus thermophilus HB8 (Thermus thermophilus HB8) (UniProt P04164).

These results are taken from article PMC3561395.

Where “and” joins values, the source holds several entries; their conditions need not be identical. Equal values may be shown once.

UniProt P04164, sequence (P04164 whole entry): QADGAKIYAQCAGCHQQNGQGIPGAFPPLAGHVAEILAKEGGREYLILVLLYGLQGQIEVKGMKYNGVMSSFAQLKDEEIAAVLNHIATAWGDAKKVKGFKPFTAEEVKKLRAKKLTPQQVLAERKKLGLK

Take “recombinant cytochrome c 550 C-terminal domain (c 550[C]) (domain or fragment)”: the forward rate constant kF of electron transfer with c 552, 4°C, ionic strength 12 mM stood at 7e+07 M⁻¹ s⁻¹; the reverse rate constant kR of electron transfer with c 552, 4°C, ionic strength 12 mM was 7e+06 M⁻¹ s⁻¹ and 3e+06 M⁻¹ s⁻¹.
With “recombinant cytochrome c 550 N-terminal domain (c 550[N]) (domain or fragment)”, the forward rate constant kF of electron transfer with c 552, 4°C, ionic strength 12 mM amounted to 1e+08 M⁻¹ s⁻¹.
